# System: MFc7 mouse renal myofibroblasts
# Experiment: MFc7 bioassay
# Type: cell-based
# Conditions: EC50 of wild type BMP7 protein/EC50 of the variant; multiple amino acid changes (Table 3)
# Experimental: MFc7 mouse renal myofibroblasts (mouse kidney fibroblast cell line) may be maintained under routine cell culture conditions in OPTI-MEM/10% FBS medium. The cells may be plated in 10 cm tissue culture plates at a seeding density of 500,000 cells/plate. After approximately 48 hours, the cells may be washed with phosphate buffered saline (PBS) prior to the addition of OPTI-MEM/2% dialyzed fetal bovine serum (FBS) medium containing 1 μg/ml BMP7 protein or 1 μg/ml of a BMP7 protein variant and incubated for 48 hours. After treatment the cells may be rinsed with PBS and stored at −80° C. for 20 minutes. After thawing the cells at 37° C. for 30 minutes 100 μl of para-nitrophenyl phosphate (PNPP) may be added. The plate may be incubated at 37° C. for 1 hour. The absorbance at 405 nm may be read utilizing a plate reader. The average relative potency (EC50 of wild type BMP7 protein/EC50 of the BMP7 protein variant) of certain human BMP7 protein variants of the present invention may be calculated based on such readings.
row,Molecule,Average Relative Potency
1,"Y65G/I86L/T89A/N110G: human mature BMP7 protein variant, SEQ ID NO: 5 (protein) STGSKQRSQNRSKTPKNQEALRMANVAENSSSDQRQACKKHELYVSFRDLGWQDWIIAPEGYAAGYCEGECAFPLNSYMNATNHALVQALVHFINPETVPKPCCAPTQLGAISVLYFDDSSNVILKKYRNMVVRACGCH",10
2,"Y65G/T89A/N110G/Y128F: human mature BMP7 protein variant, SEQ ID NO: 9 (protein) STGSKQRSQNRSKTPKNQEALRMANVAENSSSDQRQACKKHELYVSFRDLGWQDWIIAPEGYAAGYCEGECAFPLNSYMNATNHAIVQALVHFINPETVPKPCCAPTQLGAISVLYFDDSSNVILKKFRNMVVRACGCH",6.2
3,"Y65G/I86L/N110G/Y128W: human mature BMP7 protein variant, SEQ ID NO: 7 (protein) STGSKQRSQNRSKTPKNQEALRMANVAENSSSDQRQACKKHELYVSFRDLGWQDWIIAPEGYAAGYCEGECAFPLNSYMNATNHALVQTLVHFINPETVPKPCCAPTQLGAISVLYFDDSSNVILKKWRNMVVRACGCH",16
4,"F93V/N110G: human mature BMP7 protein variant F93V/N110G, SEQ ID NO: 4 (protein) STGSKQRSQNRSKTPKNQEALRMANVAENSSSDQRQACKKHELYVSFRDLGWQDWIIAPEGYAAYYCEGECAFPLNSYMNATNHAIVQTLVHVINPETVPKPCCAPTQLGAISVLYFDDSSNVILKKYRNMVVRACGCH",9
5,"Y65G/I86L/N110G/Y128F: human mature BMP7 protein variant, SEQ ID NO: 6 (protein) STGSKQRSQNRSKTPKNQEALRMANVAENSSSDQRQACKKHELYVSFRDLGWQDWIIAPEGYAAGYCEGECAFPLNSYMNATNHALVQTLVHFINPETVPKPCCAPTQLGAISVLYFDDSSNVILKKFRNMVVRACGCH",7
6,"Y65G/I86L/N110G: human mature BMP7 protein variant, SEQ ID NO: 10 (protein) STGSKQRSQNRSKTPKNQEALRMANVAENSSSDQRQACKKHELYVSFRDLGWQDWIIAPEGYAAGYCEGECAFPLNSYMNATNHALVQTLVHFINPETVPKPCCAPTQLGAISVLYFDDSSNVILKKYRNMVVRACGCH",8.7
7,"Y65G/V114M: human mature BMP7 protein variant, SEQ ID NO: 11 (protein) STGSKQRSQNRSKTPKNQEALRMANVAENSSSDQRQACKKHELYVSFRDLGWQDWIIAPEGYAAGYCEGECAFPLNSYMNATNHAIVQTLVHFINPETVPKPCCAPTQLNAISMLYFDDSSNVILKKYRNMVVRACGCH",5.0

# Same assay, conditions: EC50 of wild type BMP7 protein/EC50 of the variant; single amino acid change (Table 4)
row,Molecule,Average Relative Potency
1,"V114M: SEQ ID NO: 2 having the single amino acid mutation V114M (protein, listed as Homo sapiens) STGSKQRSQNRSKTPKNQEALRMANVAENSSSDQRQACKKHELYVSFRDLGWQDWIIAPEGYAAYYCEGECAFPLNSYMNATNHAIVQTLVHFINPETVPKPCCAPTQLNAISMLYFDDSSNVILKKYRNMVVRACGCH",9.4
2,"F93V: SEQ ID NO: 2 having the single amino acid mutation F93V (protein, listed as Homo sapiens) STGSKQRSQNRSKTPKNQEALRMANVAENSSSDQRQACKKHELYVSFRDLGWQDWIIAPEGYAAYYCEGECAFPLNSYMNATNHAIVQTLVHVINPETVPKPCCAPTQLNAISVLYFDDSSNVILKKYRNMVVRACGCH",16
3,"A37P: SEQ ID NO: 2 having the single amino acid mutation A37P (protein, listed as Homo sapiens) STGSKQRSQNRSKTPKNQEALRMANVAENSSSDQRQPCKKHELYVSFRDLGWQDWIIAPEGYAAYYCEGECAFPLNSYMNATNHAIVQTLVHFINPETVPKPCCAPTQLNAISVLYFDDSSNVILKKYRNMVVRACGCH",7.5
4,"V91M: SEQ ID NO: 2 having the single amino acid mutation V91M (protein, listed as Homo sapiens) STGSKQRSQNRSKTPKNQEALRMANVAENSSSDQRQACKKHELYVSFRDLGWQDWIIAPEGYAAYYCEGECAFPLNSYMNATNHAIVQTLMHFINPETVPKPCCAPTQLNAISVLYFDDSSNVILKKYRNMVVRACGCH",3.3
5,"Y65G: SEQ ID NO: 2 having the single amino acid mutation Y65G (protein, listed as Homo sapiens) STGSKQRSQNRSKTPKNQEALRMANVAENSSSDQRQACKKHELYVSFRDLGWQDWIIAPEGYAAGYCEGECAFPLNSYMNATNHAIVQTLVHFINPETVPKPCCAPTQLNAISVLYFDDSSNVILKKYRNMVVRACGCH",1.3
6,"E60Q: SEQ ID NO: 2 having the single amino acid mutation E60Q (protein, listed as Homo sapiens) STGSKQRSQNRSKTPKNQEALRMANVAENSSSDQRQACKKHELYVSFRDLGWQDWIIAPQGYAAYYCEGECAFPLNSYMNATNHAIVQTLVHFINPETVPKPCCAPTQLNAISVLYFDDSSNVILKKYRNMVVRACGCH",5.5
7,"T89A: SEQ ID NO: 2 having the single amino acid mutation T89A (protein, listed as Homo sapiens) STGSKQRSQNRSKTPKNQEALRMANVAENSSSDQRQACKKHELYVSFRDLGWQDWIIAPEGYAAYYCEGECAFPLNSYMNATNHAIVQALVHFINPETVPKPCCAPTQLNAISVLYFDDSSNVILKKYRNMVVRACGCH",3
8,"D33M: SEQ ID NO: 2 having the single amino acid mutation D33M (protein, listed as Homo sapiens) STGSKQRSQNRSKTPKNQEALRMANVAENSSSMQRQACKKHELYVSFRDLGWQDWIIAPEGYAAYYCEGECAFPLNSYMNATNHAIVQTLVHFINPETVPKPCCAPTQLNAISVLYFDDSSNVILKKYRNMVVRACGCH",3.3
9,"N110G: SEQ ID NO: 2 having the single amino acid mutation N110G (protein, listed as Homo sapiens) STGSKQRSQNRSKTPKNQEALRMANVAENSSSDQRQACKKHELYVSFRDLGWQDWIIAPEGYAAYYCEGECAFPLNSYMNATNHAIVQTLVHFINPETVPKPCCAPTQLGAISVLYFDDSSNVILKKYRNMVVRACGCH",1.7
10,"I86V: SEQ ID NO: 2 having the single amino acid mutation I86V (protein, listed as Homo sapiens) STGSKQRSQNRSKTPKNQEALRMANVAENSSSDQRQACKKHELYVSFRDLGWQDWIIAPEGYAAYYCEGECAFPLNSYMNATNHAVVQTLVHFINPETVPKPCCAPTQLNAISVLYFDDSSNVILKKYRNMVVRACGCH",17.4
11,"I86L: SEQ ID NO: 2 having the single amino acid mutation I86L (protein, listed as Homo sapiens) STGSKQRSQNRSKTPKNQEALRMANVAENSSSDQRQACKKHELYVSFRDLGWQDWIIAPEGYAAYYCEGECAFPLNSYMNATNHALVQTLVHFINPETVPKPCCAPTQLNAISVLYFDDSSNVILKKYRNMVVRACGCH",5.9
12,"I94F: SEQ ID NO: 2 having the single amino acid mutation I94F (protein, listed as Homo sapiens) STGSKQRSQNRSKTPKNQEALRMANVAENSSSDQRQACKKHELYVSFRDLGWQDWIIAPEGYAAYYCEGECAFPLNSYMNATNHAIVQTLVHFFNPETVPKPCCAPTQLNAISVLYFDDSSNVILKKYRNMVVRACGCH",7.5

# System: female CB17SC-M SCID mice
# Experiment: Ectopic bone formation model
# Type: in vivo
# Conditions: 3 μg/100 μl subcutaneous; CT scan on Day 13
# Experimental: Ectopic bone formation (EBF) may be measured in female CB17SC-M SCID mice upon subcutaneous administration of certain human BMP7 protein variants of the present invention compared to wild type human mature BMP7.
# Briefly described, the mice may be anesthetized with 3% isoflurane and are injected with 3 μg/100 μl of the human BMP7 protein variant, wild type human mature BMP7 protein or a vehicle control on the back left flank. The back right flank of each mouse may serve as a control (no injection). Vehicle (pH 4.5): 0.5% Sucrose, 2.5% Glycine, 5 mM L-Glutamic Acid, 5 mM NaCl, 0.01% polysorbate 80, and, 0.1% BSA.
# EBF may be measured by a CT scan on Day 13 after injection of the human BMP7 protein variant or wild type human mature BMP7 protein.
row,Molecule,Ectopic Bone Formation Volume [mm^3]
1,"Y65G/I86L/N110G/Y128W: human mature BMP7 protein variant, SEQ ID NO: 7 (protein) STGSKQRSQNRSKTPKNQEALRMANVAENSSSDQRQACKKHELYVSFRDLGWQDWIIAPEGYAAGYCEGECAFPLNSYMNATNHALVQTLVHFINPETVPKPCCAPTQLGAISVLYFDDSSNVILKKWRNMVVRACGCH",11

# From patent publication US11466066B2, “Variants of human BMP7 protein” (ELI LILLY AND COMPANY, priority 2017, dated 2022)
